Residue numbers refer to the chain shown, from its start. In names and notes the source's numbering stands.
B1: HuL3H2 (Fab, V domains shown)
VH: EVQLVESGGGLVQPGGSLKLSCAASGFTFNTYAMNWVRQASGKGLEWVARIRSKYNNYATYYADSVKDRFTISRDDSKNTLYLQMNSLKTEDTAVYYCVRHGNFGNSYVSWFAYWGQGTLVTVSS
VL: QAVVTQEPSLTVSPGGTVTLTCGSSTGAVTTSNYANWVQQKPGQAFRGLIGGTNKRAPWTPARFSGSLLGGKAALTISGAQPEDEAEYYCALWYSNLWVFGGGTKLTVL
notes: Humanized Fab expressed in Expi293F; also called VL3 + VH2 humanized Fab
B2: Murine anti-CD3 (antibody, V domains shown)
VH: B1 VH with G15K, S41P, K78Q, N79S, T80I, S87N, V95M
VL: QAVVTQESALTTSPGETVTLTCRSSTGAVTTSNYANWVQEKPDHLFTGLIGGTNKRAPGVPARFSGSLIGDKAALTITGAQTEDEAIYFCALWYSNLWVFGGGTKLTVL
notes: also called murine anti-CD3 VL/VH
B3: HuL1H1 (Fab, V domains shown)
VH: B1 VH with A49G
VL: B1 VL with V38F, F46P, G48T, G51Y
notes: Detected with anti-human kappa; also called VL1 + VH1 humanized Fab
B4: HuL2H2 (Fab, V domains shown)
VH: B1 VH
VL: B1 VL with G51Y
notes: Humanized Fab expressed in Expi293F; also called VL2 + VH2 humanized Fab
B5: HuL7H2 (Fab, V domains shown)
VH: B1 VH
VL: B1 VL with G23R, W59G, G71D
notes: Humanized Fab expressed in Expi293F; also called VL7 + VH2 humanized Fab
B6: huL5H2 (heavy chain SEQ ID NO: 41 and light chain SEQ ID NO: 39) (Fab, V domains shown)
VH: B1 VH
VL: QAVVTQEPSLTVSPGGTVTLTCRSSTGAVTTSNYANWVQQKPDHLFRGLIGGTNKRAPGTPARFSGSLLGDKAALTISGAQPEDEAEYYCALWYSNLWVFGGGTKLTVLK
notes: also called VL5 kappa + H2 Fab
B7: HuL6H2 (Fab, V domains shown)
VH: B1 VH
VL: B1 VL with G23R, V38F, G43D, Q44H, A45L, F46P, G48T, G51Y, W59G, G71D
notes: Humanized Fab expressed in Expi293F; also called VL6 + VH2 humanized Fab
B8: HuL9H2 (Fab, V domains shown)
VH: B1 VH
VL: B1 VL with W59G, T60V, A62D
notes: Humanized Fab expressed in Expi293F; also called VL9 + VH2 humanized Fab
B9: HuL8H2 (Fab, V domains shown)
VH: B1 VH
VL: B1 VL with G43D, Q44H, A45L, W59G
notes: Humanized Fab expressed in Expi293F; also called VL8 + VH2 humanized Fab
B10: HuL4H2 (Fab, V domains shown)
VH: B1 VH
VL: B1 VL with G51Y, G71D
notes: Humanized Fab expressed in Expi293F; also called VL4 + VH2 humanized Fab
B11: HuL10H2 (Fab, V domains shown)
VH: B1 VH
VL: B2 VL with S8P, A9S, E16G, E40Q, T78S, T82P, I87E, F89Y
notes: Humanized Fab expressed in Expi293F; also called VL10 + VH2 humanized Fab
B12: UCHT-1-p-TriA (2×DUPA) (Fab, V domains shown)
VH: EVQLVESGGGLVQPGGSLRLSCAASGYSFTGYTMNWVRQAPGKGLEWVALINPYKGVSTYNQKFKDRFTISVDKSKNTAYLQMNSLRAEDTAVYYCARSGYYGDSDWYFDVWGQGTLVTVSS
VL: DIQMTQSPSSLSASVGDRVTITCRASQDIRNYLNWYQQKPGKAPKLLIYYTSRLESGVPSRFSGSGSGTDYTLTISSLQPEDFATYYCQQGNTLPWTFGQGTKVEIKR
modifications: one pAcF conjugated to p-TriA (DUPA-linker); position in UCHT-1 not stated
B13: huL5H2 (SEQ ID NOS: 40, 42), pAcF double mutant Fab, unconjugated (Fab, V domains shown)
VH: B1 VH
VL: B6 VL
modifications: p-acetylphenylalanine (pAcF) in place of S205 (S205TAG); p-acetylphenylalanine (pAcF) in place of K141 (K141TAG)
notes: Expressed in E. coli with an orthogonal tRNA/synthetase; also called VL5 kappa 205TAG + H2 141TAG
B14: DI-huL5H2 (SEQ ID NOS: 40, 44), de-immunized pAcF mutant Fab, unconjugated (Fab, V domains shown)
VH: B1 VH with K19R, S41P, K89R, T90A
VL: B6 VL
modifications: p-acetylphenylalanine (pAcF) at light chain position 205 (205TAG); p-acetylphenylalanine (pAcF) at heavy chain position 141 (141TAG)
notes: The heavy chain carries the de-immunizing mutations K19R, S41P, K89R and T90A relative to huL5H2; also called huL5H2_DI
B15: huL5H2_DI-2×DUPA (SEQ ID NOS: 40, 44) (Fab, V domains shown)
VH: B1 VH with K19R, S41P, K89R, T90A
VL: B6 VL
modifications: pAcF at position 205 conjugated by oxime to p-TriA (DUPA-linker); pAcF at position 141 conjugated by oxime to p-TriA (DUPA-linker)
notes: De-immunized Fab with one DUPA on the heavy chain and one on the light chain; also called L5H2-DI-2X-DUPA; L5H2_DI-2xDUPA

Each binder was assayed against T1, human CD3 on human T cells (Jurkat) (human, UniProt P07766 23-207; P04234 22-171; P09693 23-182) (assay: flow cytometry, Jurkat cells, 0 nM antibody (background)).
T1 construct: whole, on cells; also called huCD3+; cell surface CD3 on human (Jurkat) T cells
T1 sequence (P07766 23-207, chain 1 of 3): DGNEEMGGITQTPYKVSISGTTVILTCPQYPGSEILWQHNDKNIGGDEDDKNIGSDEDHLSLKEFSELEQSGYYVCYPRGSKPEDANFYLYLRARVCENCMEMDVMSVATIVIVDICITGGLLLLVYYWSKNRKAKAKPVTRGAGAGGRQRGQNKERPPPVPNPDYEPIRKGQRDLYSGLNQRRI
T1 sequence (P04234 22-171, chain 2 of 3): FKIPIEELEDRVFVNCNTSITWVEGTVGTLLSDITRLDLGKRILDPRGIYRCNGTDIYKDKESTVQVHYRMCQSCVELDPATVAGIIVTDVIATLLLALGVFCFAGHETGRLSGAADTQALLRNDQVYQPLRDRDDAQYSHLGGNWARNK
T1 sequence (P09693 23-182, chain 3 of 3): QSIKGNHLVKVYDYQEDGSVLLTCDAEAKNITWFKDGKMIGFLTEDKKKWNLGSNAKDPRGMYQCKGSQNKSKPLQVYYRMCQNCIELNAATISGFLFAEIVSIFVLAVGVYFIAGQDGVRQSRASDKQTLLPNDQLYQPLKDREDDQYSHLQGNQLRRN
Description: (§1) To express humanized Fabs in mammalian cells, VH genes (VH1 and VH2) and VL genes (VL1~VL10) shown in FIG. 2 were individually cloned into the pFUSE vector under the IL2 signal peptide sequence. Light and heavy chains expression vectors were used to co-transfect Expi293F cells according to manufacturer's protocol. On day 3 or 4, cultured media was harvested and secreted Fabs were purified by Protein G chromatography. Binding affinity of humanized candidates for human and cynomolgus T cells were evaluated by flow cytometry. Briefly, cells were incubated with humanized Fabs at 4° C. for 30 min and washed twice with staining buffer (1% BSA in PBS). […] After several washes, samples were acquired on a BD LSR II or BD Accuri C6 and analyzed using FlowJo 7.6.2 software.

| Binder | MFI |
| --- | --- |
| B1 | 559 |
| B2 | 1400 |
| B3 | 1400 |
| B4 | 1400 |
| B5 | 1250 |
| B6 | 1400 |
| B7 | 559 |
| B8 | 559 |
| B9 | 559 |
| B10 | 559 |
| B11 | 559 |

These binders were tested against T1, human CD3 on human T cells (Jurkat) (assay: flow cytometry, Jurkat cells, 40 nM antibody).
Description: as §1

| Binder | MFI |
| --- | --- |
| B1 | 650 |
| B2 | 41400 |
| B3 | 1450 |
| B4 | 1450 |
| B5 | 13600 |
| B6 | 41600 |
| B7 | 598 |
| B8 | 9950 |
| B9 | 22000 |
| B10 | 620 |
| B11 | 12700 |

Each binder was assayed against T2, cynomolgus CD3 on cynomolgus T cells (HSC-F) (cynomolgus monkey, UniProt Q95LI5 22-198; Q95LI8 22-171; Q95LI7 23-181) (assay: flow cytometry on HSC-F (cyCD3+) cells, detected with PE-conjugated anti-human kappa secondary antibody; control is the secondary antibody alone).
T2 construct: whole, on cells; also called cyCD3+; cell surface CD3 on cynomolgus (HSC-F) T cells
T2 sequence (Q95LI5 22-198, chain 1 of 3): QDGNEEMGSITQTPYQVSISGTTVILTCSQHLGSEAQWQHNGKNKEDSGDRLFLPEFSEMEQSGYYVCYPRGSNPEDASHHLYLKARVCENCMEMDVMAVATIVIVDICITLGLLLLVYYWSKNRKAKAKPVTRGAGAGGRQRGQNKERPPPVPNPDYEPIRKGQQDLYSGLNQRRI
T2 sequence (Q95LI8 22-171, chain 2 of 3): as the sequence (P04234 22-171, chain 2 of 3) above, with I5V, N15K, I20V, S32T, D33N, I34N, T64A, S74N, V83L, H141R counted along it
T2 sequence (Q95LI7 23-181, chain 3 of 3): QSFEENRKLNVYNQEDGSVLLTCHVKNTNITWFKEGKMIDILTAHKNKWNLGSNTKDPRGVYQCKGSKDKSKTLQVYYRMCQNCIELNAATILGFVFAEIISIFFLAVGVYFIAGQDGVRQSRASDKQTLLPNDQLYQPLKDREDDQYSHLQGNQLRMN
Description: Flow cytometry was used to test binding of conjugates to cell surface CD3 on human (Jurkat) and cynomolgus (HSC-F) T cells or PSMA on C4-2 cells.

| Binder | binding result |
| --- | --- |
| B12 | no binding |

Each binder was assayed against T1, human CD3 on human T cells (Jurkat) (assay: flow cytometry, Jurkat cells, 1000 nM antibody).
Description: as §1

| Binder | MFI |
| --- | --- |
| B1 | 666 |
| B2 | 54400 |
| B3 | 1470 |
| B4 | 1470 |
| B5 | 35400 |
| B6 | 51800 |
| B7 | 2200 |
| B8 | 39400 |
| B9 | 54600 |
| B10 | 650 |
| B11 | 46300 |

What follows are binders tested against T1, human CD3 on human T cells (Jurkat) (assay: flow cytometry, Jurkat cells, 0.32 nM antibody).
Description: as §1

| Binder | MFI |
| --- | --- |
| B1 | 600 |
| B2 | 3560 |
| B3 | 1400 |
| B4 | 1400 |
| B5 | 1570 |
| B6 | 4430 |
| B7 | 572 |
| B8 | 637 |
| B9 | 837 |
| B10 | 599 |
| B11 | 688 |

What follows are binders tested against T1, human CD3 on human T cells (Jurkat) (assay: flow cytometry titration on Jurkat cells).
Description: as §1

| Binder | IC50 [nM] |
| --- | --- |
| B1 | 17.7 |
| B2 | 7.73 |
| B5 | 70.4 |
| B6 | 4.46 |
| B7 | 677 |
| B8 | 119 |
| B9 | 78 |
| B11 | 139 |

The binders below were run against T2, cynomolgus CD3 on cynomolgus T cells … (assay: flow cytometry titration on HSC-F cells).
Description: (§2) Flow cytometry was used to assess for potential differential binding to cell surface CD3 on human (Jurkat) and cynomolgus T cells as a result of the "de-immunization" process. […] After several washes, samples were acquired on a BD LSRII or BD Accuri C6 and analyzed using FlowJo software.

| Binder | IC50 [nM] |
| --- | --- |
| B13 | 3.8 |
| B14 | 3.4 |

Target: T1, human CD3 on human T cells (Jurkat)
Assay: flow cytometry titration on Jurkat cells
Remark: another data set of the same source
Description: as §2

| Binder | IC50 [nM] |
| --- | --- |
| B13 | 5.9 |
| B14 | 4.6 |

The binders below were run against T1, human CD3 on human T cells (Jurkat) (assay: flow cytometry, Jurkat cells, 1.6 nM antibody).
Description: as §1

| Binder | MFI |
| --- | --- |
| B1 | 610 |
| B2 | 10500 |
| B3 | 1440 |
| B4 | 1440 |
| B5 | 2040 |
| B6 | 13400 |
| B7 | 597 |
| B8 | 986 |
| B9 | 2120 |
| B10 | 615 |
| B11 | 1610 |

Each binder was assayed against T3, recombinant human CD3 delta/epsilon complex (hu.CD3 d/e-Fc) (human, UniProt P04234 22-105; P07766 23-126) (assay: Octet (BLI), hu.CD3de-Fc captured on Fc sensor, conjugate as analyte; unit inferred, M implied).
T3 construct: not shown: Fc portion
T3 sequence (P04234 22-105, stated change not applied, chain 1 of 2): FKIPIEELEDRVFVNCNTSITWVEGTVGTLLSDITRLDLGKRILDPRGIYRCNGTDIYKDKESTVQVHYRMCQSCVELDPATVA
T3 sequence (P07766 23-126, stated change not applied, chain 2 of 2): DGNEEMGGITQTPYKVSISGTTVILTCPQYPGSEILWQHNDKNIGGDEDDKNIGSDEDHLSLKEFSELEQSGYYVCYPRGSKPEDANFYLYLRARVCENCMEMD
Method: (§3) Analytes were serially diluted 1.2× from 6 μg/mL to 1 μg/mL in the 1×PBS. 100 mM glycine (pH 2.87) regeneration solution, and 1×PBS for baseline stabilization was also prepared. Biosensor, ligand and analytes pair is following: (1) CH-1-antibodies-recombinant human or cynomolgus monkey CD3 delta/epsilon complex, (2) Fc-recombinant human or cynomolgus monkey CD3 delta/epsilon complex-antibodies (3) CH-1-antibodies-recombinant human or cynomolgus monkey PSMA; and (4) Ni-NTA-recombinant human or cynomolgus monkey PSMA-antibodies. Prior to the binding measurements, the sensor tips were pre-hydrated in 1×PBS for 30 min, followed by 1 cycles of pre-conditioning with 60-sec dips in glycine (pH 2.87). The sensor tips were then transferred to the ligand-containing wells for a 180-sec loading step. After a 120-sec baseline dip in 1×PBS, the binding kinetics were measured by dipping the ligand-coated sensors into the wells containing corresponding analyte at varying concentrations. The binding interactions were monitored over a 180-sec association period and followed by a 7.5 to 15-min dissociation period in new wells containing fresh 1×PBS.

| Binder | Kd [nM] |
| --- | --- |
| B15 | 11 |

Each binder was assayed against T1, human CD3 on human T cells (Jurkat) (assay: flow cytometry, Jurkat cells, 200 nM antibody).
Description: as §1

| Binder | MFI |
| --- | --- |
| B1 | 643 |
| B2 | 50600 |
| B3 | 1460 |
| B4 | 1460 |
| B5 | 28900 |
| B6 | 48000 |
| B7 | 835 |
| B8 | 27900 |
| B9 | 42000 |
| B10 | 620 |
| B11 | 31300 |

These binders were tested against T1, human CD3 on human T cells (Jurkat) (assay: flow cytometry, Jurkat cells, 8 nM antibody).
Description: as §1

| Binder | MFI |
| --- | --- |
| B1 | 610 |
| B2 | 28500 |
| B3 | 1450 |
| B4 | 1450 |
| B5 | 4240 |
| B6 | 31700 |
| B7 | 573 |
| B8 | 2760 |
| B9 | 7670 |
| B10 | 620 |
| B11 | 3270 |

Each binder was assayed against T3, recombinant human CD3 delta/epsilon … (assay: Octet (BLI), conjugate captured on CH1 sensor, hu.CD3 d/e-Fc as analyte; unit inferred, M implied).
Method: as §3

| Binder | Kd [nM] |
| --- | --- |
| B15 | 5.13 |
